Laboratory results: US20150166643A1 (Alexion, published 2015)

Columns and labels:
[1] = target: T1, human factor B (purified, Complement Technology A135) (human, UniProt P00751 26-764); test: SPR (Biacore), factor B directly bound to the chip at low coverage, TA106 Fab flowed over
T1 construct: also called fB; human complement factor B
Text: (§1) The difference in the two Biacore data sets could be explained as either that the conformation of factor B changes when binding to the surface or that not all commercial factor B is active. This later Biacore experiment (with a fixed concentration of factor B bound to the chip) removed the factor B concentration from the calculation.

[2] = target: T1, human factor B (purified, Complement …); test: cell-based or functional assay
[3] = target: T1, human factor B (purified, Complement …); test: SPR (Biacore), human factor B directly coupled to CM5 chip, Fab flowed at 0.19-25 nM
Text: Binding kinetics of TA106 Fab and variant S33A Fab (CLS016) were further characterized using Surface Plasmon Resonance (SPR) technology. In one exemplary experiment, both Fabs were captured on chips of a Biacore 3000 analyzer and samples of human factor B of different concentrations were flowed as the antigen over the surface to model soluble human factor B binding, using protocols recommended by the manufacturer and described previously in the instant disclosure. […] In another exemplary experiment, the affinities of both Fabs were also measured by reversing the orientation of the previous experiment. Specifically, human factor B was directly coupled to one flow cell of a CM5 chip. The second flow cell was used as a blank reference with no coupled ligand. CLS016 or TA106 Fab was then flowed on both flow cells. Concentrations between 0.19 to 25 nM were run with duplicates. The surface was regenerated between each cycle.

[4] = target: T1, human factor B (purified, Complement …); test: SPR (Biacore), factor B bound directly to the chip, free TA106 Fab flowed; Chi2 0.901 (the text rounds to 1.4 nM)
Text: as §1

[5] = target: T1, human factor B (purified, Complement …); test: SPR (Biacore), TA106 Fab captured on anti-Fab surface, soluble factor B flowed; Chi2 0.113
[6] = target: T1, human factor B (purified, Complement …); test: SPR (Biacore 3000), Fab captured by human Fab binder on CM5 chip, soluble human factor B 3.1-200 nM; Fab captured on chip, soluble factor B
Text: Binding kinetics of mAbs were further characterized using Biacore's Surface Plasmon Resonance (SPR) technology (GE Healthcare, Piscataway, N.J.). For a detailed description of SPR and its applications in affinity measurement, please see Karlsson and Larsson, Antibody Engineering: Methods and Protocols, Methods in Molecular Biology (2003), 248: 389-415. In one exemplary experiment, TA106 Fab and derivative mAbs were captured on chips of a Biacore 3000 analyzer and samples of human factor B of different concentrations were flowed as the antigen over the surface to model soluble human factor B binding, using protocols recommended by the manufacturer (e.g., in the product brochure #BR-9003-31). All these referenced publications are hereby incorporated by reference in their entirety. […] Fab TA106 (Xoma, Lot#TTA1007, 20 mg/mL) was then flowed over one flow cell, followed by injections of human factor B on both flow cells. Concentrations (factor B) between 3.1-200 nM were run. The surface was regenerated between each cycle. […] The affinities of mAbs, i.e., CLS011, CLS012, and CLS013, were determined using a similar capture approach. In one exemplary experiment, human anti-Fc antibody was amine coupled to two flow cells of a CM5 chip. Each of the TA106-originated mAbs was then flowed over one flow cell, followed by injecting human factor B (3.1-200 nM) on both flow cells. […]

[7] = target: T1, human factor B (purified, Complement …); test: BLI (Octet), biotinylated factor B on streptavidin biosensor, Fab at 100 nM
Experimental: Binding kinetics of TA106 and TA106 S33A Fab (CLS016) to Factor B were analyzed using a FortéBio® Octet® biosensor (FortéBio, Inc.) in a similar protocol as described previously. In one exemplary experiment, Factor B (Complement Technology) was biotinylated at a 1:10 ratio and coupled to a streptavidin biosensor at a concentration of 5 μg/mL for a loading time of 600 seconds. Biosensors were briefly dipped in 1×KB as a wash for 30 seconds. Associations with a titration series of Fab with a concentration range from 100 to 3 nM (diluted in 1×KB) were carried out for 600 seconds. Fabs were dissociated from the biosensor by immersing the biosensor in 1×KB during the 600 second dissociation phase. As depicted in FIGS. 19 and 20, both TA106 Fab and TA106-derivative S33A Fab (CLS016) bound to Factor B at various concentrations, resulting in nearly identical association and dissociation profiles. Kinetic assessments using partial local fit parameters yielded identical values for KD/kₐ/Kd at each concentration tested.

T1 sequence (P00751 26-764): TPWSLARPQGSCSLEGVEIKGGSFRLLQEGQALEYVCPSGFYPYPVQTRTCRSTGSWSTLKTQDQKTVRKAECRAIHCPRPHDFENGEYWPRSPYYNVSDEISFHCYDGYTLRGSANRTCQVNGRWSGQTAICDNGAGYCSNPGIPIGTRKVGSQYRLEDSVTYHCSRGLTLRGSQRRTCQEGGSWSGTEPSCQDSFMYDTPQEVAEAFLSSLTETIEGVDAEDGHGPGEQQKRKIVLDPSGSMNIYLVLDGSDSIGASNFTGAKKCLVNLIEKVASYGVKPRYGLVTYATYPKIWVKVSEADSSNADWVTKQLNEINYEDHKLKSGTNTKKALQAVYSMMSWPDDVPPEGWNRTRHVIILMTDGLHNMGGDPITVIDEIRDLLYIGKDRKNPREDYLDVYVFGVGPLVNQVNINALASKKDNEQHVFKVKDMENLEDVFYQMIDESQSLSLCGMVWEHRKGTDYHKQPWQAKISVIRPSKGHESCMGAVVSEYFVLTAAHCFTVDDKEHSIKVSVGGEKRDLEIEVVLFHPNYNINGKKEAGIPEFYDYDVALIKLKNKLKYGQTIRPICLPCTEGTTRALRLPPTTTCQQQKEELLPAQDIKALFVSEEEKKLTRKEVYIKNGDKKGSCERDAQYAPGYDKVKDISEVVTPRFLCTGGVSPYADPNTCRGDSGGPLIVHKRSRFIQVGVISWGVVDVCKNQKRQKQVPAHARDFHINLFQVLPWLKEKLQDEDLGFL

B1: TA106 Fab (humaneered anti-factor B Fab, expressed in E. coli) (Fab, V domains shown)
VH: QVQLVQSGAEVKKPGASVKVSCKASGYSFTDYYMTWVRQAPGQGLEWMGWINPNSGGTKYAQKFQGRVTMTRDTSISTAYMELSRLRSDDTAVYYCARGYYANSAWFAYWGQGTLVTVSS
VL: DIVMTQSPDSLAVSLGERATINCKSSQSLLNSSTSKNYLAWYQQKPGQPPKLLIYWASTRESGVPDRFSGSGSGTDFTLTISSLQAEDVAVYYCKQVYNLPWTFGQGTKLEIKR
notes: Fab made in E. coli by Xoma, not glycosylated; also called Fab TA106; TA106 wild type Fab
[1]
  Kd: 1.4 nM
[2]
  IC50 (read off the curve); lysis of rabbit red blood cells in 10% normal human serum: ~80 nM
[3]
  Kd: ~1.2 nM
[4]
  Kd: 1.39 nM
[5]
  koff: 0.0036 s⁻¹
  kon: 118000 M⁻¹ s⁻¹
[6]
  Kd: ~24.9 nM
[7]
  Kd: 13 nM
  koff: 0.00405 s⁻¹
  kon: 312000 M⁻¹ s⁻¹
